Key:
[1] = Diffusion through Strat-M membranes in Franz cell (in vitro dermal compatibility); assay type: in vitro ADME; conditions: after 6 hours, averaged across all tests, 37° C., PBS pH 7.4
From the text: Strat-M™ membranes (EMD Millipore) were selected and for testing diffusion of the immobilized enzyme through healthy skin. Strat-M is a synthetic polymeric membrane designed to simulate the properties of human skin for transdermal diffusion. The membrane is composed of multiple polyether sulfone layers with a tightly packed surface layer to create a morphology that resembles human skin. The advantage of this material is that it provides a more predictive result, since it has less variability between samples, and is not as limited to storage conditions, safety considerations, and sample availability.
Franz cells with 5 mL receptor volumes were filled with filtered 10 mM PBS buffer at pH 7.4 and held at 37° C. Strat-M membranes were placed on the receptor, covered with 0.3 mL of buffer, and the system was allowed to equilibrate with the receptor fluid for at least 30 minutes. After equilibration 0.5 mL of solutions containing 20-100 mg/mL of natural enzyme, immobilized enzyme, or BSA as a control were added to the top of the Franz cell and the cell was covered. 0.5 mL samples were taken hourly (replacing the volume with fresh PBS buffer each time) for the first 6 hours and a final sample at 24 hours. The protein concentration in each sample was evaluated using a Bradford assay and a 660 nm protein concentration assay from Pierce. The enzyme activity of the 24-hour samples was evaluated to determine if active enzyme or just peptides had passed through the membrane.

[2] = test system: Human keratinocytes; experiment: Keratinocyte compatibility testing, resazurine-based assay; assay type: cell-based
Procedure: (§1) Immobilized enzyme samples were further analyzed to determine if they have a detrimental effect on healthy tissue surrounding a burn wound. Human keratinocytes and fibroblasts obtained from ATCC, were seeded at cell densities of 2×10^4 in 24 well plates 6 days prior to experiments and incubated at 37° C. under 5% CO2. On day 7 a stock solution of 100 mg/mL an immobilized enzyme or natural enzyme is prepared in either PBS or a culture medium. Cells were treated with 500 μL of the enzyme solution, at several dilutions, for up to 6 hours. At the end of the test, the enzyme solution is removed, cells were washed twice with PBS, and 500 μL of the appropriate cultivation media is added. The effect of the different concentrations of enzyme on the cells is assessed using a resazurine-based assay and life cell imaging. In this case the fluorescence signal is proportional to the amount of vital cells. All enzyme concentrations were measured in triplicate (n=3). The enzyme containing fluid removed after 6 hours of exposure to cells is evaluated using the methods described above for enzymatic activity. Data determined above is used to compensate for autolytic degradation in test samples.

[3] = test system: casein; experiment: pH stability and autolytic resistance, 6 hours at 37° C. in phosphate buffer; assay type: physicochemical; conditions: for Retained activity after 6 hours of exposure: phosphate buffer, average of 5 ± standard error
Procedure: Natural (non-immobilized) and immobilized forms of each enzyme were loaded into 10 mL of phosphate buffer solutions at pH 7.0, 6.0, and 5.0 and mixed for 6 hours at 37° C. These pH values were selected as representative of the range of pH of intact to wounded skin. The amount of natural or immobilized enzyme material that was added at the start of the test was based on its measured activity, so that all tests started with similar enzyme activities for each enzyme: 2.6 U bromelain, 21 U collagenase, and 5.4 U trypsin. Retained activity was determined by taking a sample of the test solution at a given time point and evaluating it against casein. The measured activity of the test sample was divided by the activity measured at the start of the test and is presented as the average of 5 measurements±standard error, Table 2.

[4] = test system: Human fibroblasts; experiment: Fibroblast compatibility study, resazurine-based assay; assay type: cell-based; conditions: all tested concentrations
Procedure: as §1

| Substance | Amount of protein passing through Strat-M membranes [1] [mg] | Highest relative signal ([2]; 40 mg/mL) | Retained activity after 6 hours of exposure ([3]; pH 5, 37° C., listed as bromelain Natural) | Retained activity after 6 hours of exposure ([3]; pH 6, 37° C.) | Retained activity after 6 hours of exposure ([3]; pH 7, 37° C.) | Relative signal (cell growth) [4] | Loss of initial activity within 6 hours ([3]; all pH tested) | Retained activity after 6 hours of exposure ([3]; pH 5, 37° C.) | Relative signal ([2]; all tested concentrations) | Loss of starting activity after 6 hours ([3]; pH 7) [%] |
| --- | --- | --- | --- | --- | --- | --- | --- | --- | --- | --- |
| bromelain | 2.08 ± 0.25 | 6.71 | 95.6% ± 4.9% | 36.1% ± 1.4% | 64.7% ± 3.0% | – | – | – | – | – |
| collagenase | 18.15 ± 0.81 | – | – | 18.9% ± 1.3% | 13.9% ± 3.3% | ~1 | 80-90% | 12.3% ± 4.5% | – | – |
| trypsin | 11.93 ± 0.50 | – | – | 46.1% ± 1.2% | 7.7% ± 5.3% | almost no change to cell growth | – | 43.3% ± 1.1% | around 1 | 92 |

From patent publication US20230255880A1, “IMMOBILIZED ENZYME-BASED WOUND DEBRIDEMENT” (Guild Associates Inc., priority 2022, published 2023)
